Data as given in PMC5868845.

Target: 4F2hc (UniProt P08195)
Test: co-IP from transfected 293FT, western blot
Conditions: reference: Flag-NT wild type

Row | binding against the reference (sites S233) | binding against the reference (sites S237) | Substance
1 | lost | – | Girdin NT domain, 1-256 (from UniProt Q3V6T2) Flag-NT S233A
2 | – | lost | Girdin NT domain, 1-256 (from UniProt Q3V6T2) Flag-NT S237A
